# Test results reported in patent US7968692B2, “Elongase genes and uses thereof” (Abbott Laboratories, priority 1998, dated 2011).
# B1: MAELO: Mortierella alpina elongase encoded by MAELO cDNA (SEQ ID NO:1), expressed in S. cerevisiae 334 from pRAE-5 (protein, listed as Mortierella alpina)
# chain: MAAAILDKVNFGIDQPFGIKLDTYFAQAYELVTGKSIDSFVFQEGVTPLSTQREVAMWTITYFVVIFGGRQIMKSQDAFKLKPLFILHNFLLTIASGSLLLLFIENLVPILARNGLFYAICDDGAWTQRLELLYYLNYLVKYWELADTVFLVLKKKPLEFLHYFHHSMTMVLCFVQLGGYTSVSWVPITLNLTVHVFMYYYYMRSAAGVRIWWKQYLTTLQIVQFVLDLGFIYFCAYTYFAFTYFPWAPNVGKCAGTEGAALFGCGLLSSYLLLFINFYRITYNAKAKAAKERGSNFTPKTVKSGGSPKKPSKSKHI
# Tests used:
# Assay type in all cases: cell-based, Saccharomyces cerevisiae
# S. cerevisiae 334 [1] = test: Comparison of MAELO and S. cerevisiae ELO2 PUFA elongase activity in baker's yeast; settings: 25 μM GLA
# Text: The ELO2 gene encoding for the yeast elongase was cloned from an S. cerevisiae genomic library (Origene, Rockville, Md.) using the primers RO514 (SEQ ID NO: 94) (5′-GGCTATGGATCCATGAATTCACTCGTTACTCAATATG-3′) and RO515 (SEQ ID NO: 95)(5′-CCTGCCAAGCTTTTACCTTTTTCTTCTGTGTTGAG-3′) incorporating the restriction sites (underlined) BamHI and HindIII (respectively). The ELO2 gene was cloned into the vector pYX242 at the BamHI and HindIII sites, designated pRELO, transformed into the S. cerevisiae host 334 (Hoveland et al., supra) and screened for PUFA elongase activity. The vector plasmid was used as a negative control and 334(pRAE-5) was grown to compare the PUFA elongase activity. The cultures were grown as previously described with no galactose in the media and 25 μM GLA added as a substrate. […] Additionally, when DGLA produced is expressed as a percent of the total lipids (shown in parenthesis, FIG. 12), the clones 334(pRELO-1) and 334 (pRELO-2) produced 0.153% and 0.2% DGLA respectively, while 334(pYX242) produced 0.185% DGLA. […] The M. alpina PUFA elongase activity is specific for this conversion as evidenced by the higher amount of DGLA produced compared to the control, 334(pYX242).
# S. cerevisiae 334 [2] = test: MAELO co-expressed with Δ5-desaturase (pCGR-4) in yeast, AA production; settings: 25 μM GLA; pRAE-5 and pCGR-4 co-transformed; FIG. 11
# Procedure: Once 20:3n-6 is generated by the M. alpina elongase (MAELO), the Δ5-desaturase can convert it to AA in the desired expression system. To test this hypothesis, the constructs pRAE-5 and pCGR-4 (a Δ5-desaturase containing plasmid) were co-transformed into S. cerevisiae 334 and screened for AA production. The substrate used was 25 μM GLA (18:3n-6). If the M. alpina elongase (MAELO) is active in yeast, then the substrate will be converted to DGLA(20:3n-6), which the Δ5-desaturase will convert to AA(20:4n-6).
# SC334 = test: MAD (M. alpina direct) cDNA expression library screening in yeast, GLA to DGLA
# Procedure: To screen the library, the glycerol stocks were thawed and approximately 0.5 ml was added to 5 ml of liquid selective media lacking uracil (Ausubel et al., supra) and grown at 30° C. for 24 hours. The culture was then transferred into 50 ml of liquid selective medium lacking uracil with 2% galactose and 25 (D)M GLA (substrate for the elongase enzyme) for 24 hours at 25° C. with shaking. The GC-FAME analysis of the lipid content in the cell pellet of each induced culture was performed as previously described (Knutzon et al., supra). The MAELO (pRAE-5 in pYX242 grown in selective media lacking leucine) was used as a positive control in each batch run. MAELO had consistently been able to convert 1.5% of GLA to DGLA (see Example III).
# After screening and analyzing approximately 750 individual pools by GC-FAME analysis, as described in Example VIII, one pool of five colonies (i.e., MAD708) appeared to have significant enzymatic activity in converting GLA to DGLA. […] This pool was tested again under identical assay conditions to confirm the initial findings. […] Since MAD708 was a pool of five different clones, it was necessary to isolate the individual cDNA clone which encoded for elongase activity from this pool. To do this, the original MAD708 glycerol stock was plated onto a selective media agar plate lacking uracil (Ausubel et al., supra). […]
# S. cerevisiae 334 [3] = test: Expression of M. alpina elongase (MAELO) cDNA in baker's yeast, GC-FAME analysis of lipid fraction; settings: substrate GLA; 40-48 hours at 25° C.
# Text: The constructs pRAE-5, and pRAE-6 were transformed into S. cerevisiae 334 (Hoveland et al., Gene 83:57-64 (1989)) and screened for elongase activity. The plasmid pCGN7875 (Calgene LLC, Davis, Calif.) containing jojoba KCS gene in pYES2 vector (Invitrogen Corp., Carlsbad, Calif.) was used as a positive control. The substrate used to detect elongase activity in M. alpina elongase (MAELO) was GLA and that in jojoba KCS was oleic acid (OA). The negative control strain was S. cerevisiae 334 containing pYX242 vector. The cultures were grown for 40-48 hours at 25° C., in selective media (Ausubel et al., Short Protocols in Molecular Biology, Ch. 13, p. 3-5 (1992)), in the presence of a particular substrate. The expression of the jojoba KCS gene cloned in pYES2 was under the control of GAL1 promoter, while the promoter in pYX242 is TP1, which is constitutive. […] The GC-FAME analysis of the lipid fraction of each cell pellet was performed as previously described (Knutzon et al., supra).
# The jojoba KCS elongates long chain monounsaturated fatty acids 18:1n-9 to 20:1n-9. […] The activity of the M. alpina elongase, elongation (MAELO) of long chain monounsaturated and saturated fatty acids, is seen in the conversion of 18:1n-9 to 20:1n-9 and also in the synthesis of 24:0. The control strain, 334(pYX242) has very little or no detectable amount of 20:1 and 24:0 (see FIG. 10A). […]
molecule,measurement,setting,value
B1,increase of percent DGLA over 334(pYX242) (negative control),S. cerevisiae 334 [1],50.8%
same,DGLA produced as a percent of the total lipids,S. cerevisiae 334 [1]; FIG. 12,0.279%
same,amount of 20:3n-6 or DGLA produced relative to negative control pYX242,S. cerevisiae 334 [1]; FIG. 12,approximately 4 times
same,AA production,S. cerevisiae 334 [2],confirm the production of AA
same,conversion of GLA to DGLA,"SC334; individual clones of MAD708 pool, FIG. 20",3.4%
same,conversion of GLA to DGLA,SC334; positive control in each batch run of library screening,1.5%
same,percentage of 20:3n-6 in total lipid,S. cerevisiae 334 [3],0.324%
same,total amount of 20:3n-6 produced,S. cerevisiae 334 [3],2.504 µg
